According to IntAct's records for PubMed 9341158:

B1: AP-2 complex subunit mu (Rattus norvegicus (Rat)), P84092 (parent)
chain: MIGGLFIYNHKGEVLISRVYRDDIGRNAVDAFRVNVIHARQQVRSPVTNIARTSFFHVKRSNIWLAAVTKQNVNAAMVFEFLYKMCDVMAAYFGKISEENIKNNFVLIYELLDEILDFGYPQNSETGALKTFITQQGIKSQHQTKEEQSQITSQVTGQIGWRREGIKYRRNELFLDVLESVNLLMSPQGQVLSAHVSGRVVMKSYLSGMPECKFGMNDKIVIEKQGKGTADETSKSGKQSIAIDDCTFHQCVRLSKFDSERSISFIPPDGEFELMRYRTTKDIILPFRVIPLVREVGRTKLEVKVVIKSNFKPSLLAQKIEVRIPTPLNTSGVQVICMKGKAKYKASENAIVWKIKRMAGMKESQISAEIELLPTNDKKKWARPPISMNFEVPFAPSGLKVRYLKVFEPKLNYSDHDVIKWVRYIGRSGIYETRC

Variants of: B1
Details: with tgon3_rat Ttgn1, P19814
tgon3_rat Ttgn1, P19814, sequence (P19814 whole entry): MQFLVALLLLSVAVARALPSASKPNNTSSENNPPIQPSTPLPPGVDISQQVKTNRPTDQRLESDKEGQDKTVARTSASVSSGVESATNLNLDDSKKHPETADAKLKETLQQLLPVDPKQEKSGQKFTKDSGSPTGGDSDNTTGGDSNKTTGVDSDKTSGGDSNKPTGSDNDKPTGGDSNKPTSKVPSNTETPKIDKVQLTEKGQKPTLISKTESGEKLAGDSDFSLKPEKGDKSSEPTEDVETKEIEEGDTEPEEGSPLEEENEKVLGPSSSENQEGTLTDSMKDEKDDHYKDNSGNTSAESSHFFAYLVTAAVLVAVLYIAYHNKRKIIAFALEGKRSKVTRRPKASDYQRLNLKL

Effect of a mutation on the interaction, decreasing interaction:
D269A
M209A
F265A
G270A

Variants of: B1
Details: with ap2b1_human AP2B1, P63010
ap2b1_human AP2B1, P63010, sequence (P63010 whole entry): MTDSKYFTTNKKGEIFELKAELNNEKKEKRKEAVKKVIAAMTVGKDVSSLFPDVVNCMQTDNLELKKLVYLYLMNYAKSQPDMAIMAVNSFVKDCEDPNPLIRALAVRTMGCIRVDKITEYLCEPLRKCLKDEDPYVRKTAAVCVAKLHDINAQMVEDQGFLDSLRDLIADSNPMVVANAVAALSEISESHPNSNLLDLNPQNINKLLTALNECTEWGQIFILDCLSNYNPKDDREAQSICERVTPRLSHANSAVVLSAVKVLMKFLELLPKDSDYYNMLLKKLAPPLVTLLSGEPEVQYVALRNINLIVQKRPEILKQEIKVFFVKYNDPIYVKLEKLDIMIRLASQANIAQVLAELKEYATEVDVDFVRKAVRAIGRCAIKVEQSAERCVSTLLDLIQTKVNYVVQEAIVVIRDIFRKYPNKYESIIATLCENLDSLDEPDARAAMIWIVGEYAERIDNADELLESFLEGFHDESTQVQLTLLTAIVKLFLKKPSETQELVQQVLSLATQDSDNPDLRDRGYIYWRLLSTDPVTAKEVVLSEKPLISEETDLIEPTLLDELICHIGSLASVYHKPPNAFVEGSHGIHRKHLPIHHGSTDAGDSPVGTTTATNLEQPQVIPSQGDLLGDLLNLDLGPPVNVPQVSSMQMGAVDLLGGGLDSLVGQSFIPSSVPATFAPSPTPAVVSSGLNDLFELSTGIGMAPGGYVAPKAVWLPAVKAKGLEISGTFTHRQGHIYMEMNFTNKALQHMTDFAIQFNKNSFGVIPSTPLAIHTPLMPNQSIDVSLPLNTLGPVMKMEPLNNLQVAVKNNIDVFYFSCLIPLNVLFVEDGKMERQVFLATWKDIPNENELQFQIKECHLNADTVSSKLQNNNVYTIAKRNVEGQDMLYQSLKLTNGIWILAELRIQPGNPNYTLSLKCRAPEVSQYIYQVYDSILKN

Effect of a mutation on the interaction, decreasing interaction:
Y83A
L82A
I96A
